Experimental data reported in article PMC12380274.

Key:
[1] = target: chicken p32/C1QBP/gC1qR clone M9 (residues 76-278) fused to the GAL4 activation domain (UniProt A0A8V1AMS0); assay: yeast two-hybrid, liquid β-galactosidase (ONPG) assay; conditions: triplicates over three independent experiments; for response: parent: 16.2
[2] = target: full-length pUL47 (RB-1B) with SR motif 3 mutated to AA, fused to the GAL4 DNA-binding domain (Marek's Disease Virus (Gallid alphaherpesvirus 2), strain RB-1B); assay: two-hybrid; SR mutants and Δ71-185 of pUL47 in pGBKT7 against p32(M9); β-galactosidase coloration and liquid β-galactosidase quantification relative to full-length pUL47 (1-808), triplicates over three experiments (Fig 4B, 4C)
[3] = target: pUL47 (RB-1B) domain 71-185 fused to the GAL4 DNA-binding domain (Marek's Disease Virus (Gallid alphaherpesvirus 2), strain RB-1B); assay: as above
[4] = target: full-length pUL47 (RB-1B) with SR motif 4 mutated to AA, fused to the GAL4 DNA-binding domain (Marek's Disease Virus (Gallid alphaherpesvirus 2), strain RB-1B); assay: as above

Substance | response [1] [% vs 1-808] | further results
pUL47 (RB-1B) domain 71-185 fused to the GAL4 DNA-binding domain SR1 (Ser-Arg to Ala-Ala); SR2 (Ser-Arg to Ala-Ala) | 24 | 
pUL47 (RB-1B) domain 71-185 fused to the GAL4 DNA-binding domain SR1 (SR motif 1, Ser-Arg to Ala-Ala) | 25.4 | 
pUL47 (RB-1B) domain 71-185 fused to the GAL4 DNA-binding domain SR5 (Ser-Arg to Ala-Ala); SR6 (Ser-Arg to Ala-Ala) | 10.1 | 
pUL47 of Marek's Disease Virus (RB-1B), full length, fused to the GAL4 DNA-binding domain (pGBKT7-UL47) SR3 (Ser-Arg to Ala-Ala); SR4 (Ser-Arg to Ala-Ala) |  | percent of parent ([1]; parent: 100): 71.2 % vs 1-808
chicken p32/C1QBP/gC1qR clone M9 (residues 76-278) fused to the GAL4 activation domain (from UniProt A0A8V1AMS0 76-278) (domain or fragment) |  | reduction of β-galactosidase signal against full-length pUL47 [2]: 30%; β-galactosidase signal, percent of full-length pUL47 [3]: 16%; reduction of β-galactosidase signal against full-length pUL47 [4]: 30%
pUL47 (RB-1B) domain 71-185 fused to the GAL4 DNA-binding domain SR2 (SR motif 2, Ser-Arg to Ala-Ala) | 13 | 
pUL47 (RB-1B) domain 71-185 fused to the GAL4 DNA-binding domain SR3 (Ser-Arg to Ala-Ala); SR4 (Ser-Arg to Ala-Ala) | 3.7 | 
pUL47 (RB-1B) domain 71-185 fused to the GAL4 DNA-binding domain SR6 (SR motif 6, Ser-Arg to Ala-Ala) | 8.2 | 
pUL47 (RB-1B) domain 71-185 fused to the GAL4 DNA-binding domain SR5 (SR motif 5, Ser-Arg to Ala-Ala) | 20.4 | 
